Measured values published in patent US20220411506A1 (SUZHOU GALAXY BIOPHARMA, published 2022).

T1: hCTLA4-mFc fusion protein (human, UniProt P16410 36-161)
T1 construct: Captured on AMC (anti-mouse Fc capture) sensors in the Octet assay; not shown: mFc (mouse Fc)
T1 sequence (looked up): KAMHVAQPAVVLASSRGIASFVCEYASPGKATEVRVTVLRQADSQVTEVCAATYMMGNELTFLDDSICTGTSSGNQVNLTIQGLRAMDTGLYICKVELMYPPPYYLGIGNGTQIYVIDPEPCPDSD

T2: hCTLA4-hFc (human, UniProt P16410 36-161)
T2 construct: also called hCTLA4-Fc protein; biotinylated hCTLA4-hFc; not shown: hFc (human Fc)
T2 sequence (looked up): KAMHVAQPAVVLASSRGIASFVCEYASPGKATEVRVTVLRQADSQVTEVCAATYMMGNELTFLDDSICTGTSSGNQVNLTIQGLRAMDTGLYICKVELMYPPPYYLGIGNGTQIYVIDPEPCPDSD

T3: human CTLA4 on the cell surface (human, UniProt P16410 36-223)
T3 construct: whole, on cells; also called CTLA4 on the surface of human T cells
T3 sequence (looked up): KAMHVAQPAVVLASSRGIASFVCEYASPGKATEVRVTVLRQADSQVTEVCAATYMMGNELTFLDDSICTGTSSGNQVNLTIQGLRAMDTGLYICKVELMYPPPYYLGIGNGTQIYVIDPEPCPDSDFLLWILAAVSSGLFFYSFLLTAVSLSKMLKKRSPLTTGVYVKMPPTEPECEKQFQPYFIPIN

T4: monkey CTLA4-Fc (SinoBiological, catalog #90213-C02H) (monkey, UniProt G7PL88 36-161, Probably biotin-labeled (detected with HRP-streptavidin). Fused to an Fc that is not given in letters.)
T4 construct: Detected with streptavidin, so read as biotin-labeled like the mouse protein
T4 sequence: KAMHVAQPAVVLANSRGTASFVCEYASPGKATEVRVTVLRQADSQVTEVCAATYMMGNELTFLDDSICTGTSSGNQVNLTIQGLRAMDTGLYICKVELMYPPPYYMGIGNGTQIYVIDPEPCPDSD


Experiments:
[1] = target: T1, hCTLA4-mFc fusion protein; test: BLI (Octet-96), CTLA4-mFc on AMC sensor, antibody 3-200 nM, 1:1 global fit
Method: The kinetic constants (kassoc and kdissoc) of binding of the antibody and the antigen were measured using the biomolecular interaction system Octet-96 (Pall Life Sciences, S-000959), and the equilibrium binding constant KD was further calculated. […] Specifically, AMC sensors were pre-wet in the buffer (PBS containing 0.02% Tween-20 and 0.1% BSA) for 10 minutes and then equilibrated in CTLA4-mFc sample buffer for 5 minutes to such that the CTLA4-mFc proteins were coupled to the surfaces of sensors. The CTLA4-mFc-coupled AMC sensors were first equilibrated in the buffer for 2 minutes and then incubated for 5 minutes in buffer containing different concentrations of antibody (3-200 nM) to measure the binding of antibodies to the CTLA4-mFc protein. Finally, the antigen and antibody-bound sensors were repositioned in the sample buffer and waited for 10 minutes to measure the dissociation of antibodies from the CTLA4-mFc proteins. The measured data were globally fitted using a 1:1 model to obtain kinetic constants of binding and dissociation. On this basis, an equilibrium binding constant KD was further obtained.

[2] = target: T2, hCTLA4-hFc; test: competition ELISA: biotin-labeled CTLA4-hFc pre-incubated with graded chimeric antibody, captured on coated Ipilimumab (2 ug/mL)
Method: The plates were washed three times with PBST and incubated with 1/1000 diluted HRP-labeled streptavidin (BD, catalog #554066) for 1 hour at room temperature. The plates were washed and developed by adding TMB.

[3] = target: T2, hCTLA4-hFc; test: ELISA, coated hCTLA4-hFc
Method: ELISA was used for detecting the binding of purified antibodies to CTLA4-hFc. […] The plates were washed with PBST (PBS containing 0.05% of Tween-20) three times, and were blocked with 5% skimmed milk powder (Oxoid, catalog #LP0031B) for 2 hours at 37° C. The plates were washed three times with PBST and were incubated for 1 hour at room temperature with antibodies to be detected. The plates were washed three times and incubated for 1 hour at room temperature with 1/5000 diluted HRP-labeled goat anti-mouse IgG secondary antibodies (Invitrogen, catalog #31432). The plates were washed with PBST and were developed by adding TMB.

[4] = target: T3, human CTLA4 on the cell surface; test: FACS on 293T-hCTLA4 cells
Method: The purified antibodies to be detected were added to wells at a certain concentration (50 μL/well) and incubated for 1 hour at 4° C. The cells were washed three times with buffer and were incubated for 0.5 hour at 4° C. with PE-labeled fluorescent secondary antibodies. The cells were washed three times with FACS buffer and re-suspended to 200 μL/well. The fluorescence signals were detected using Attune Nxt flow cytometer (Thermo Fisher).

[5] = target: T4, monkey CTLA4-Fc (SinoBiological, …); test: ELISA, coated antibody, monkey CTLA4-Fc
Method: (§1) Species cross reactions of the purified antibodies were detected using ELISA. The quantified purified antibodies were coated on 96-well plates (Corning, catalog #9018) followed by incubation overnight at 4° C., and were blocked with 5% skimmed milk powder (Oxoid, catalog #LP0031B) for 2 hours at 37° C. The biotin-labeled mouse CTLA4-His (SinoBiological, catalog #50503-M08H) or monkey CTLA4-Fc (SinoBiological, catalog #90213-C02H) was added to the plates and incubated for 1 hour at room temperature. The plates were washed three times with PBST and incubated with 1/1000 diluted HRP-labeled streptavidin (BD, catalog #554066) for 1 hour at room temperature. The plates were washed and developed by adding TMB.

[6] = target: T5, biotin-labeled mouse CTLA4-His (SinoBiological, catalog #50503-M08H) (mouse, UniProt P09793 36-162, biotin-labeled (site not stated)); test: ELISA, coated antibody, biotin mouse CTLA4-His
T5 construct: not shown: His tag
Method: as §1

[7] = target: T2, hCTLA4-hFc; test: blocking ELISA, coated antibody, biotin hCTLA4-hFc, competitor hCD80-Fc
Method: (§2) The purified antibodies were coated on 96-well plates (Corning, catalog #9018) followed by incubation overnight at 4° C., and were blocked with 5% skimmed milk powder (Oxoid, catalog #LP0031B) for 2 hours at 37° C. […] The plates were washed with PBST and incubated with HRP-labeled streptavidin (BD, catalog #554066) for 1 hour at room temperature. The plates were washed and developed by adding TMB.

[8] = target: T2, hCTLA4-hFc; test: blocking ELISA, coated antibody, biotin hCTLA4-hFc, competitor hCD86-Fc
Method: as §2

| Binder | Kd [1] [nM] | IC50 (read off the curve) [2] [µg/mL] | EC50 [3] [nM] | EC50 [4] [nM] | ELISA (OD) [5] [OD] | ELISA (OD) [6] [OD] | IC50 [7] [µg/mL] | IC50 [8] [µg/mL] |
| --- | --- | --- | --- | --- | --- | --- | --- | --- |
| human-mouse CTLA4 chimeric antibody 9B8-H2-B6-G5 (antibody, V domains shown) VH: QVQLQQPGSELVRPGASVKLSCKASGYTFTNYWVHWVKQRPGQGLEWIGNIFPGSDTSNYDEKFISKATLTVDTSSSAAYMQLNSLTSEDSAVYYCARLAYFTNYGGAMDYWGRGTSVTVSS VL: DIVLTQSPASLVVSLGQRATISCRASKSVSTSAYNYMHWYQQKPGQPPKLLIYLASNLESGVPARFSGSGSGTDFTLNVHPVEEEDAATYYCQLSRELPYTFGGGTKLEIK | 0.0868 | ~0.2 | – | – | – | – | – | – |
| human-mouse CTLA4 chimeric antibody 4H9-G5-D5-B1 (antibody, V domains shown) VH: EVKLDETGGGLVQPGRSMKLSCVVSGFTFSDNWMNWVRQSPEKGLEWVAQIRNKPYNFETYYSDSVKGRFTISRDDSKSTVYLQMNNLRAEDMGVYYCTGGFTYWGQGTLVTVSA VL: DIQMTQSPASLSASVGETVTITCGASENIYGGLNWYQRKQGKSPQLLIYGATNLAEGMSSRFSGSGSGRQYSLKISSLHPDDVATYYCQNVLSSPWTFGGGTKLEIK | < 0.001 | ~0.03 | – | – | – | – | – | – |
| murine anti-CTLA4 monoclonal antibody 4H9-G5-D5-B1 (antibody, V domains shown, Mouse hybridoma antibody purified on Protein A) VH: EVKLDETGGGLVQPGRSMKLSCVVSGFTFSDNWMNWVRQSPEKGLEWVAQIRNKPYNFETYYSDSVKGRFTISRDDSKSTVYLQMNNLRAEDMGVYYCTGGFTYWGQGTLVTVSA VL: DIQMTQSPASLSASVGETVTITCGASENIYGGLNWYQRKQGKSPQLLIYGATNLAEGMSSRFSGSGSGRQYSLKISSLHPDDVATYYCQNVLSSPWTFGGGTKLEIK | – | – | 0.023 | 1.35 | 2.79 | 0.05 | 0.0691 | 7.24 |

Further lines, results first:

| Kd [1] [nM] | IC50 (read off the curve) [2] [µg/mL] | EC50 [3] [nM] | EC50 [4] [nM] | ELISA (OD) [5] [OD] | ELISA (OD) [6] [OD] | IC50 [7] [µg/mL] | IC50 [8] [µg/mL] | Binder |
| --- | --- | --- | --- | --- | --- | --- | --- | --- |
| – | – | 0.025 | 1.08 | 0.37 | 0.06 | 0.00292 | 1.08 | murine anti-CTLA4 monoclonal antibody 9B8-H2-B6-G5 (antibody, V domains shown, Mouse hybridoma antibody purified on Protein A) VH: QVQLQQPGSELVRPGASVKLSCKASGYTFTNYWVHWVKQRPGQGLEWIGNIFPGSDTSNYDEKFISKATLTVDTSSSAAYMQLNSLTSEDSAVYYCARLAYFTNYGGAMDYWGRGTSVTVSS VL: DIVLTQSPASLVVSLGQRATISCRASKSVSTSAYNYMHWYQQKPGQPPKLLIYLASNLESGVPARFSGSGSGTDFTLNVHPVEEEDAATYYCQLSRELPYTFGGGTKLEIK |
| – | – | 0.036 | – | 0.64 | 0.06 | 0.0357 | 3.15 | murine anti-CTLA4 monoclonal antibody 19C5-G11-A7-G5 (antibody, V domains shown, Mouse hybridoma antibody purified on Protein A) VH: EVQLQQSGTVLARPGASVKMSCKASGYSFTSYWIHWVKQRPGQGLEWIGAFYPGNSDTNYNQNFKGKAKLTAVTSASTAYMELSSLTNEDSAVYYCTYYYRSSYAMDNWGQGTSVTVSS VL: DIQMNQSPSSLSASLGDTITITCHASQNINDWLSWYQQKPGNIPKLLIYKASNLHTGVPSRFSGSGSGTGFTLTISSLQPEDIATYYCQQGQSYPLTFGSGTKLEIK |
